# Data published in patent publication US5254534A, “Adjuvant for cancer immunotherapy” (Green Cross Corporation, priority 1988, dated 1993).
# Like-named read-outs stand apart in the source and are kept apart here.
# Tests used:
# mouse marrow cells [1] = experiment: Colony stimulating activity: colony formation of mouse marrow cells on soft agar; format: cell-based; conditions: for specific activity: purified glycoprotein/CSF of the examples
# Description: In biological activity measurement, the colony formation of mouse marrow cells in vitro was used as an activity measurement parameter. […] Thereafter, cell aggregates consisting of 50 or more cells were counted as colonies under an invert microscope.
# One colony formed is taken as one unit.
# Thus, the CSF sample was admixed with 1 ml of McCoy's 5A medium containing 0.3% agar, 20% fetal calf serum (FCS) and 1×10^5 mouse marrow cells. […] Thereafter, cell aggregates consisting of 50 or more cells were judged as colonies and counted. The colony stimulating activity was expressed in units. One unit was defined as the quantity of CSF required for the formation of one colony. The specific activity was expressed in terms of the number of colonies (units) formed per milligram of the CSF protein. […] The colonies formed were stained with hematoxylin-eosin for morphological classification.
# TNF activity = experiment: Induction of TNF activity by mixed culture of monocytes and PICIBANIL (OK-432) plus CSF; cytocidal activity against L929 cells (crystal violet); format: cell-based; conditions: conclusions from Table 2
# Description: (3) Incubation was performed at 37° C. for 72 hours in a 5% CO2 atmosphere.
# (4) The supernatant was assayed for TNF activity at timed intervals. The TNF activity was determined by measuring the cytocidal activity against L929 cells in terms of the absorbance of crystal violet.
# [2] = Thermal stability of the CSF (60°C, then colony stimulating activity); format: physicochemical; conditions: 1 μg/ml, dilute buffer pH 7.0, 60°±0.5° C., 60 minutes
# Description: The CSF was dissolved in a dilute buffer (pH 7.0) to a concentration of 1 μg/ml, and the solution was heated at 60°±0.5° C. for 60 minutes and then assayed for colony stimulating activity (to be mentioned later herein).
# Isoelectric point = format: physicochemical; conditions: polyacrylamide gel isoelectric focusing and sucrose density gradient isoelectric focusing
# Description: The isoelectric point (pI) as determined by the polyacrylamide gel isoelectric focusing and sucrose density gradient isoelectric focusing techniques is 3.1-3.7.
# mouse marrow cells [3] = conditions: CSF (iv), typical production method; cited from earlier work
# [4] = polyacrylamide gel isoelectric focusing and sucrose density gradient isoelectric focusing; CSF (iv); cited from earlier work
# [5] = system: mammalian monocyte-macrophage series cells; conditions: cited from earlier work
# [6] = 60±0.5° C., 60 minutes; CSF (iv); cited from earlier work
# [7] = cited from earlier work
# [8] = 1% (by weight) aqueous solution; cited from earlier work
# human marrow cells = conditions: cited from earlier work
# [9] = 1% (by weight) aqueous solution, 60° C. ±0.5° C., 30 minutes; cited from earlier work
# marrow cells = conditions: cited from earlier work
molecule,measurement,setting,value
"Example 4: human urine-derived CSF isolated and purified in the same manner as in Example 3 with TSKG-3,000SW and phenyl-5pw (protein, UniProt P09603 33-554, looked up) Macrophage colony-stimulating …: EEVSEYCSHMIGSGHLQSLQRLIDSQMETSCQITFEFVDQEQLKDPVCYLKKAFLLVQDIMEDTMRFRDNTPNAIAIVQLQELSLRLKSCFTKDYEEHDKACVRTFYETPLQLLEKVKNVFNETKNLLDKDWNIFSKNCNNSFAECSSQDVVTKPDCNCLYPKAIPSSDPASVSPHQPLAPSMAPVAGLTWEDSEGTEGSSLLPGEQPLHTVDPGSAKQRPPRSTCQSFEPPETPVVKDSTIGGSPQPRPSVGAFNPGMEDILDSAMGTNWVPEEASGEASEIPVPQGTELSPSRPGGGSMQTEPARPSNFLSASSPLPASAKGQQPADVTGTALPRVGPVRPTGQDWNHTPQKTDHPSALLRDPPEPGSPRISSLRPQGLSNPSTLSAQPQLSRSHSSGSVLPLGELEGRRSTRDRRSPAEPEGGPASEGAARPLPRFNSVPLTDTGHERQSEGSFSPQLQESVFHLLVPSVILVLLAVGGLLFYRWRRRSHQEPQRADSPLEQPEGSPLTQDDRQVELPV",specific activity,mouse marrow cells [1],1.5×10^8 units/mg protein
same,TNF activity (in words),TNF activity,does not cause TNF activity expression
"Example 3: purified CSF from human urine, homodimer of 70,000-90,000 daltons (protein, UniProt P09603 33-554, looked up) Macrophage colony-stimulating …: EEVSEYCSHMIGSGHLQSLQRLIDSQMETSCQITFEFVDQEQLKDPVCYLKKAFLLVQDIMEDTMRFRDNTPNAIAIVQLQELSLRLKSCFTKDYEEHDKACVRTFYETPLQLLEKVKNVFNETKNLLDKDWNIFSKNCNNSFAECSSQDVVTKPDCNCLYPKAIPSSDPASVSPHQPLAPSMAPVAGLTWEDSEGTEGSSLLPGEQPLHTVDPGSAKQRPPRSTCQSFEPPETPVVKDSTIGGSPQPRPSVGAFNPGMEDILDSAMGTNWVPEEASGEASEIPVPQGTELSPSRPGGGSMQTEPARPSNFLSASSPLPASAKGQQPADVTGTALPRVGPVRPTGQDWNHTPQKTDHPSALLRDPPEPGSPRISSLRPQGLSNPSTLSAQPQLSRSHSSGSVLPLGELEGRRSTRDRRSPAEPEGGPASEGAARPLPRFNSVPLTDTGHERQSEGSFSPQLQESVFHLLVPSVILVLLAVGGLLFYRWRRRSHQEPQRADSPLEQPEGSPLTQDDRQVELPV",proportion of colonies that were monocyte-macrophage colonies,"mouse marrow cells [1]; hematoxylin-eosin staining, 7 days at 37° C.",at least 95%
same,specific activity,mouse marrow cells [1],1.4×10^8 units/mg protein
same,Thermal stability (colony stimulating activity decrease),[2],Almost no activity decrease was observed
same,isoelectric point (pI),Isoelectric point,3.1-3.7
"CSF (iv): CSF disclosed in JP-A-63-250400; glycoprotein, homodimer composed of two identical subunits (protein, UniProt P09603 33-554, looked up) Macrophage colony-stimulating …: EEVSEYCSHMIGSGHLQSLQRLIDSQMETSCQITFEFVDQEQLKDPVCYLKKAFLLVQDIMEDTMRFRDNTPNAIAIVQLQELSLRLKSCFTKDYEEHDKACVRTFYETPLQLLEKVKNVFNETKNLLDKDWNIFSKNCNNSFAECSSQDVVTKPDCNCLYPKAIPSSDPASVSPHQPLAPSMAPVAGLTWEDSEGTEGSSLLPGEQPLHTVDPGSAKQRPPRSTCQSFEPPETPVVKDSTIGGSPQPRPSVGAFNPGMEDILDSAMGTNWVPEEASGEASEIPVPQGTELSPSRPGGGSMQTEPARPSNFLSASSPLPASAKGQQPADVTGTALPRVGPVRPTGQDWNHTPQKTDHPSALLRDPPEPGSPRISSLRPQGLSNPSTLSAQPQLSRSHSSGSVLPLGELEGRRSTRDRRSPAEPEGGPASEGAARPLPRFNSVPLTDTGHERQSEGSFSPQLQESVFHLLVPSVILVLLAVGGLLFYRWRRRSHQEPQRADSPLEQPEGSPLTQDDRQVELPV",specific activity,mouse marrow cells [3],"100,000-20,000,000 units/mg protein"
same,isoelectric point (pI),[4],3.1-3.7
same,colony stimulating activity,[5],has colony stimulating activity
same,Thermal stability (biological activity),[6],biological activity is not lost
"CSF (i): CSF disclosed in U.S. Pat. No. 4,275,056; glycoprotein, molecular weight 75,000-90,000 by gel filtration (protein, UniProt P09603 33-554, looked up) Macrophage colony-stimulating …: EEVSEYCSHMIGSGHLQSLQRLIDSQMETSCQITFEFVDQEQLKDPVCYLKKAFLLVQDIMEDTMRFRDNTPNAIAIVQLQELSLRLKSCFTKDYEEHDKACVRTFYETPLQLLEKVKNVFNETKNLLDKDWNIFSKNCNNSFAECSSQDVVTKPDCNCLYPKAIPSSDPASVSPHQPLAPSMAPVAGLTWEDSEGTEGSSLLPGEQPLHTVDPGSAKQRPPRSTCQSFEPPETPVVKDSTIGGSPQPRPSVGAFNPGMEDILDSAMGTNWVPEEASGEASEIPVPQGTELSPSRPGGGSMQTEPARPSNFLSASSPLPASAKGQQPADVTGTALPRVGPVRPTGQDWNHTPQKTDHPSALLRDPPEPGSPRISSLRPQGLSNPSTLSAQPQLSRSHSSGSVLPLGELEGRRSTRDRRSPAEPEGGPASEGAARPLPRFNSVPLTDTGHERQSEGSFSPQLQESVFHLLVPSVILVLLAVGGLLFYRWRRRSHQEPQRADSPLEQPEGSPLTQDDRQVELPV",Solubility in chloroform,[7]; chloroform,slightly soluble
same,Solubility in ethyl alcohol and acetone,[7]; ethyl alcohol and acetone,insoluble
same,Solubility in water,[7]; water,soluble
same,pH,[8],5.0-6.0
same,differentiation and proliferation of granulocytes,human marrow cells,promotes the differentiation and proliferation of granulocytes
same,Temperature stability,[9],loses its ability to promote the differentiation and proliferation of human granulocytes
"2: heat-treated glycoprotein (CSF) from fresh urine collected from healthy humans (protein, UniProt P09603 33-554, looked up, heat-treated, heat-treated glycoprotein (CSF) from fresh urine collected from healthy humans) Macrophage colony-stimulating …: EEVSEYCSHMIGSGHLQSLQRLIDSQMETSCQITFEFVDQEQLKDPVCYLKKAFLLVQDIMEDTMRFRDNTPNAIAIVQLQELSLRLKSCFTKDYEEHDKACVRTFYETPLQLLEKVKNVFNETKNLLDKDWNIFSKNCNNSFAECSSQDVVTKPDCNCLYPKAIPSSDPASVSPHQPLAPSMAPVAGLTWEDSEGTEGSSLLPGEQPLHTVDPGSAKQRPPRSTCQSFEPPETPVVKDSTIGGSPQPRPSVGAFNPGMEDILDSAMGTNWVPEEASGEASEIPVPQGTELSPSRPGGGSMQTEPARPSNFLSASSPLPASAKGQQPADVTGTALPRVGPVRPTGQDWNHTPQKTDHPSALLRDPPEPGSPRISSLRPQGLSNPSTLSAQPQLSRSHSSGSVLPLGELEGRRSTRDRRSPAEPEGGPASEGAARPLPRFNSVPLTDTGHERQSEGSFSPQLQESVFHLLVPSVILVLLAVGGLLFYRWRRRSHQEPQRADSPLEQPEGSPLTQDDRQVELPV",specific activity,mouse marrow cells [1],1×10^7 units/mg protein
"CSF (ii): CSF disclosed in JP-A-63-54398; glycoprotein, molecular weight about 70,000 by gel filtration (protein, UniProt P09603 33-554, looked up) Macrophage colony-stimulating …: EEVSEYCSHMIGSGHLQSLQRLIDSQMETSCQITFEFVDQEQLKDPVCYLKKAFLLVQDIMEDTMRFRDNTPNAIAIVQLQELSLRLKSCFTKDYEEHDKACVRTFYETPLQLLEKVKNVFNETKNLLDKDWNIFSKNCNNSFAECSSQDVVTKPDCNCLYPKAIPSSDPASVSPHQPLAPSMAPVAGLTWEDSEGTEGSSLLPGEQPLHTVDPGSAKQRPPRSTCQSFEPPETPVVKDSTIGGSPQPRPSVGAFNPGMEDILDSAMGTNWVPEEASGEASEIPVPQGTELSPSRPGGGSMQTEPARPSNFLSASSPLPASAKGQQPADVTGTALPRVGPVRPTGQDWNHTPQKTDHPSALLRDPPEPGSPRISSLRPQGLSNPSTLSAQPQLSRSHSSGSVLPLGELEGRRSTRDRRSPAEPEGGPASEGAARPLPRFNSVPLTDTGHERQSEGSFSPQLQESVFHLLVPSVILVLLAVGGLLFYRWRRRSHQEPQRADSPLEQPEGSPLTQDDRQVELPV",differentiation and proliferation of granulocytic series stem cells,marrow cells,promotes the differentiation and proliferation of granulocytic series stem cells
